US20230340128A1

Legend:
[1] = target: human mesothelin (MSLN) (human) (UniProt Q13421); assay: BLI (Octet), bsAb in 1+1 Fab-scFv-Fc format
[2] = target: cyno MSLN (Macaca fascicularis); assay: BLI (Octet), bsAb in 1+1 Fab-scFv-Fc format

Row | Binder | Kd [1] [nM] | Response [1] | koff [1] [s⁻¹] | kon [1] [M⁻¹ s⁻¹] | Kd [2] [nM] | Response [2] | koff [2] [s⁻¹] | kon [2] [M⁻¹ s⁻¹]
1 | XENP32551 (bispecific antibody, part only; not given: anti-CD3 scFv-Fc arm, constant regions, V domains shown, not shown: another chain or arm of the molecule; a dimerising Fc or GST; small tags and cut ends) VH: QVQLVQSGAEVKKPGASVKVSCKASGYTFTSYYMHWVRQAPGQGLEWMGMIHPNSDNTIYYEKFQGRVTMTVDKSISTAYMELSRLRSDDTAVYYCAIIITPVVPKFDYWGQGTLVTVSS VL: DIVMTQSPDSLAVSLGERATINCKASHDVGTSVAWYQQKPGQSPKLLIYWASTRHTGVPDRFTGSGSGTDFTLTISSLQAEDVAVYFCQQYSSYPLTFGAGTKLEIK | 1.6 | 1.19 | 0.000773 | 483000 | 1.66 | 1.1 | 0.000822 | 495000
2 | XENP32553 (bispecific antibody, part only; not given: anti-CD3 scFv-Fc arm, constant regions, V domains shown, not shown: another chain or arm of the molecule; a dimerising Fc or GST; small tags and cut ends) VH: QVQLVQSGAEVKKPGASVKVSCKASGYTFTSYWMHWVRQAPGQGLEWMGMINPNSDNTIYYEKFQGRVTMTVDKSISTAYMELSRLRSDDTAVYYCAIIITPVVPKFDYWGQGTLVTVSS VL: DIVMTQSPDSLAVSLGERATINCKASHDVGTSVAWYQQKPGQSPKLLIYWASTRHTGVPDRFTGSGSGTDFTLTISSLQAEDVAVYFCQQYSSYPLTFGAGTKLEIK | 0.687 | 1.16 | 0.00037 | 539000 | 0.585 | 1.06 | 0.000337 | 575000
3 | XENP32554 (bispecific antibody, part only; not given: anti-CD3 scFv-Fc arm, constant regions, V domains shown, not shown: another chain or arm of the molecule; a dimerising Fc or GST) VH: QVQLVQSGAEVKKPGASVKVSCKASGYTFTSYWMHWVRQAPGQGLEWMGMIHPQSDNTIYYEKFQGRVTMTVDKSISTAYMELSRLRSDDTAVYYCAIIITPVVPKFDYWGQGTLVTVSS VL: DIVMTQSPDSLAVSLGERATINCKASHDVGTSVAWYQQKPGQSPKLLIYWASTRHTGVPDRFTGSGSGTDFTLTISSLQAEDVAVYFCQQYSSYPLTFGAGTKLEIK | 0.483 | 1.13 | 0.000268 | 555000 | 0.414 | 1.03 | 0.00023 | 555000
4 | XENP32555 (bispecific antibody, part only; not given: anti-CD3 scFv-Fc arm, constant regions, V domains shown, not shown: another chain or arm of the molecule; a dimerising Fc or GST; small tags and cut ends) VH: QVQLVQSGAEVKKPGASVKVSCKASGYTFTSYWMHWVRQAPGQGLEWMGMIHPNSGNTIYYEKFQGRVTMTVDKSISTAYMELSRLRSDDTAVYYCAIIITPVVPKFDYWGQGTLVTVSS VL: DIVMTQSPDSLAVSLGERATINCKASHDVGTSVAWYQQKPGQSPKLLIYWASTRHTGVPDRFTGSGSGTDFTLTISSLQAEDVAVYFCQQYSSYPLTFGAGTKLEIK | 0.684 | 1.23 | 0.000375 | 549000 | 0.603 | 1.11 | 0.000342 | 566000
5 | XENP32556 (bispecific antibody, part only; not given: anti-CD3 scFv-Fc arm, constant regions, V domains shown, not shown: another chain or arm of the molecule; a dimerising Fc or GST; small tags and cut ends) VH: QVQLVQSGAEVKKPGASVKVSCKASGYTFTSYWMHWVRQAPGQGLEWMGMIHPNSDNTIYYEKFQGRVTMTVDKSISTAYMELSRLRSDDTAVYYCARIITPVVPKFDYWGQGTLVTVSS VL: DIVMTQSPDSLAVSLGERATINCKASHDVGTSVAWYQQKPGQSPKLLIYWASTRHTGVPDRFTGSGSGTDFTLTISSLQAEDVAVYFCQQYSSYPLTFGAGTKLEIK | 0.469 | 1.18 | 0.000199 | 425000 | 0.395 | 1.07 | 0.000157 | 399000
6 | XENP32557 (bispecific antibody, part only; not given: anti-CD3 scFv-Fc arm, constant regions, V domains shown, not shown: another chain or arm of the molecule; a dimerising Fc or GST; small tags and cut ends) VH: QVQLVQSGAEVKKPGASVKVSCKASGYTFTSYWMHWVRQAPGQGLEWMGMIHPNSDNTIYYEKFQGRVTMTVDKSISTAYMELSRLRSDDTAVYYCAIIISPVVPKFDYWGQGTLVTVSS VL: DIVMTQSPDSLAVSLGERATINCKASHDVGTSVAWYQQKPGQSPKLLIYWASTRHTGVPDRFTGSGSGTDFTLTISSLQAEDVAVYFCQQYSSYPLTFGAGTKLEIK | 0.721 | 1.15 | 0.000374 | 519000 | 0.62 | 1.09 | 0.000321 | 518000
7 | XENP32558 (bispecific antibody, part only; not given: anti-CD3 scFv-Fc arm, constant regions, V domains shown, not shown: another chain or arm of the molecule; a dimerising Fc or GST; small tags and cut ends) VH: QVQLVQSGAEVKKPGASVKVSCKASGYTFTSYWMHWVRQAPGQGLEWMGMIHPNSDNTIYYEKFQGRVTMTVDKSISTAYMELSRLRSDDTAVYYCAIIITPVVPRFDYWGQGTLVTVSS VL: DIVMTQSPDSLAVSLGERATINCKASHDVGTSVAWYQQKPGQSPKLLIYWASTRHTGVPDRFTGSGSGTDFTLTISSLQAEDVAVYFCQQYSSYPLTFGAGTKLEIK | 0.795 | 1.17 | 0.000198 | 249000 | 0.7 | 1.11 | 0.000166 | 238000
8 | XENP32559 (bispecific antibody, part only; not given: anti-CD3 scFv-Fc arm, constant regions, V domains shown, not shown: another chain or arm of the molecule; a dimerising Fc or GST; small tags and cut ends) VH: QVQLVQSGAEVKKPGASVKVSCKASGYTFTSYWMHWVRQAPGQGLEWMGMIHPNSDNTIYYEKFQGRVTMTVDKSISTAYMELSRLRSDDTAVYYCAIIITPVVPKFDYWGQGTLVTVSS VL: DIVMTQSPDSLAVSLGERATINCKSSHDVGTSVAWYQQKPGQSPKLLIYWASTRHTGVPDRFTGSGSGTDFTLTISSLQAEDVAVYFCQQYSSYPLTFGAGTKLEIK | 0.283 | 1.11 | 0.000161 | 569000 | 0.223 | 1.04 | 0.000128 | 575000
